Data from article PMC5375031 (Nature, 2017).
Blank lines part the entries; values can stand above or below the binder they belong to. Where no end group is shown, it is not given here.

Legend:
[1] = biological target: T1, TAZ1 domain of CBP (residues 340-439 of mouse CBP) (mouse, UniProt P45481 340-439); experiment: fluorescence polarisation
[2] = biological target: T1, TAZ1 domain of CBP (residues 340-439 of …); experiment: fluorescence polarisation + BLI
[3] = biological target: T1, TAZ1 domain of CBP (residues 340-439 of …); experiment: stopped-flow fluorescence
[4] = biological target: T1, TAZ1 domain of CBP (residues 340-439 of …); experiment: fluorescence polarisation; remark: listed apart in the source

T1 sequence (P45481 340-439): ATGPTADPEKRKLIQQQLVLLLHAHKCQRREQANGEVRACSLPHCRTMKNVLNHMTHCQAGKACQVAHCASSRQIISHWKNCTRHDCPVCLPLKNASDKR

B1: HIF-1α 776-826 C800V labeled with Alexa Fluor 594 at position 780 (peptide, UniProt Q16665 776-826, looked up)
chain: SDLAC(Alexa Fluor 594)RLLGQSMDESGLPQLTSYDVEVNAPIQGSRNLLQGEELLRALDQVN
binding result [1]: binds

B2: HIF-1α C-terminal transactivation domain peptide (residues 776-826) (peptide, UniProt Q16665 776-826, looked up)
chain: SDLACRLLGQSMDESGLPQLTSYDCEVNAPIQGSRNLLQGEELLRALDQVN
apparent Kd (displacing labeled HIF-1α from TAZ1) [1]: 10 ± 1 nM
Kd [2]: 10 nM

B3: CITED2 transactivation domain peptide (residues 216-269) (peptide, UniProt Q99967 216-269, looked up)
chain: NVIDTDFIDEEVLMSLVIEMGLDRIKELPELWLGQNEFDFMTDFVCKQQPSRVS
Kd [2]: 10 nM

The remaining lines, values ahead:

binding result [3]: binds
B4: HIF-1α 776-826 C800V labeled with Alexa Fluor 488 at position 780 (peptide, UniProt Q16665 776-826, looked up)
chain: SDLAC(Alexa Fluor 488)RLLGQSMDESGLPQLTSYDVEVNAPIQGSRNLLQGEELLRALDQVN

binding result [4]: binds
B5: CITED2 216-269 labeled with Alexa Fluor 594 at Cys 261 (peptide, UniProt Q99967 216-269, looked up)
chain: NVIDTDFIDEEVLMSLVIEMGLDRIKELPELWLGQNEFDFMTDFVC(Alexa Fluor 594)KQQPSRVS
